{"source": "the supplement of paper PMC10567573", "parents": {"B1": {"name": "CSNK1G1 (parent)", "chain": "GSLPWQGLKADTLKERYQKIGDTK"}}, "data": [{"variants_of": "B1", "assay": "protein stability index of a GFP-peptide fusion (GPS, HEK-293T) (PSI 1-6); higher = more stable", "details": "c terminus: a fixed tail appended", "values": [{"variant": "GSLPWQCLKADTLKERYQKIGDTK", "note": "[G7C]", "protein stability index": 3.4}, {"variant": "GSLPWQDLKADTLKERYQKIGDTK", "note": "[G7D]", "protein stability index": 4.33}, {"variant": "GSLPWQELKADTLKERYQKIGDTK", "note": "[G7E]", "protein stability index": 4.31}, {"variant": "GSLPWQFLKADTLKERYQKIGDTK", "note": "[G7F]", "protein stability index": 2.42}, {"variant": "GSLPWQHLKADTLKERYQKIGDTK", "note": "[G7H]", "protein stability index": 3.72}, {"variant": "GSLPWQILKADTLKERYQKIGDTK", "note": "[G7I]", "protein stability index": 3.52}, {"variant": "GSLPWQKLKADTLKERYQKIGDTK", "note": "[G7K]", "protein stability index": 3.75}, {"variant": "GSLPWQLLKADTLKERYQKIGDTK", "note": "[G7L]", "protein stability index": 3.44}, {"variant": "GSLPWQMLKADTLKERYQKIGDTK", "note": "[G7M]", "protein stability index": 3.85}, {"variant": "GSLPWQNLKADTLKERYQKIGDTK", "note": "[G7N]", "protein stability index": 4.64}, {"variant": "GSLPWQPLKADTLKERYQKIGDTK", "note": "[G7P]", "protein stability index": 4.38}, {"variant": "GSLPWQQLKADTLKERYQKIGDTK", "note": "[G7Q]", "protein stability index": 3.9}, {"variant": "GSLPWQRLKADTLKERYQKIGDTK", "note": "[G7R]", "protein stability index": 3.56}, {"variant": "GSLPWQSLKADTLKERYQKIGDTK", "note": "[G7S]", "protein stability index": 4.01}, {"variant": "GSLPWQTLKADTLKERYQKIGDTK", "note": "[G7T]", "protein stability index": 3.89}, {"variant": "GSLPWQVLKADTLKERYQKIGDTK", "note": "[G7V]", "protein stability index": 3.65}, {"variant": "GSLPWQWLKADTLKERYQKIGDTK", "note": "[G7W]", "protein stability index": 3.52}, {"variant": "GSLPWQYLKADTLKERYQKIGDTK", "note": "[G7Y]", "protein stability index": 3.49}, {"variant": "GSLPWQGAKADTLKERYQKIGDTK", "note": "[L8A]", "protein stability index": 3.73}, {"variant": "GSLPWQGCKADTLKERYQKIGDTK", "note": "[L8C]", "protein stability index": 3.35}, {"variant": "GSLPWQGDKADTLKERYQKIGDTK", "note": "[L8D]", "protein stability index": 4.75}, {"variant": "GSLPWQGEKADTLKERYQKIGDTK", "note": "[L8E]", "protein stability index": 4.44}, {"variant": "GSLPWQGFKADTLKERYQKIGDTK", "note": "[L8F]", "protein stability index": 3.54}, {"variant": "GSLPWQGGKADTLKERYQKIGDTK", "note": "[L8G]", "protein stability index": 4.76}, {"variant": "GSLPWQGHKADTLKERYQKIGDTK", "note": "[L8H]", "protein stability index": 4.36}, {"variant": "GSLPWQGIKADTLKERYQKIGDTK", "note": "[L8I]", "protein stability index": 4.13}, {"variant": "GSLPWQGKKADTLKERYQKIGDTK", "note": "[L8K]", "protein stability index": 4.17}, {"variant": "GSLPWQGMKADTLKERYQKIGDTK", "note": "[L8M]", "protein stability index": 4.35}, {"variant": "GSLPWQGNKADTLKERYQKIGDTK", "note": "[L8N]", "protein stability index": 4.58}, {"variant": "GSLPWQGPKADTLKERYQKIGDTK", "note": "[L8P]", "protein stability index": 4.43}, {"variant": "GSLPWQGQKADTLKERYQKIGDTK", "note": "[L8Q]", "protein stability index": 4.24}, {"variant": "GSLPWQGRKADTLKERYQKIGDTK", "note": "[L8R]", "protein stability index": 4.32}, {"variant": "GSLPWQGSKADTLKERYQKIGDTK", "note": "[L8S]", "protein stability index": 4.64}, {"variant": "GSLPWQGTKADTLKERYQKIGDTK", "note": "[L8T]", "protein stability index": 4.9}, {"variant": "GSLPWQGVKADTLKERYQKIGDTK", "note": "[L8V]", "protein stability index": 4.66}, {"variant": "GSLPWQGWKADTLKERYQKIGDTK", "note": "[L8W]", "protein stability index": 3.69}, {"variant": "GSLPWQGYKADTLKERYQKIGDTK", "note": "[L8Y]", "protein stability index": 3.63}, {"variant": "GSLPWQGLAADTLKERYQKIGDTK", "note": "[K9A]", "protein stability index": 3.71}, {"variant": "GSLPWQGLCADTLKERYQKIGDTK", "note": "[K9C]", "protein stability index": 3.93}, {"variant": "GSLPWQGLDADTLKERYQKIGDTK", "note": "[K9D]", "protein stability index": 4.25}, {"variant": "GSLPWQGLEADTLKERYQKIGDTK", "note": "[K9E]", "protein stability index": 4.69}, {"variant": "GSLPWQGLFADTLKERYQKIGDTK", "note": "[K9F]", "protein stability index": 3.66}, {"variant": "GSLPWQGLGADTLKERYQKIGDTK", "note": "[K9G]", "protein stability index": 3.9}, {"variant": "GSLPWQGLHADTLKERYQKIGDTK", "note": "[K9H]", "protein stability index": 4.24}, {"variant": "GSLPWQGLIADTLKERYQKIGDTK", "note": "[K9I]", "protein stability index": 3.79}, {"variant": "GSLPWQGLLADTLKERYQKIGDTK", "note": "[K9L]", "protein stability index": 3.18}, {"variant": "GSLPWQGLMADTLKERYQKIGDTK", "note": "[K9M]", "protein stability index": 3.87}, {"variant": "GSLPWQGLNADTLKERYQKIGDTK", "note": "[K9N]", "protein stability index": 4.46}, {"variant": "GSLPWQGLPADTLKERYQKIGDTK", "note": "[K9P]", "protein stability index": 5.08}, {"variant": "GSLPWQGLQADTLKERYQKIGDTK", "note": "[K9Q]", "protein stability index": 3.89}, {"variant": "GSLPWQGLRADTLKERYQKIGDTK", "note": "[K9R]", "protein stability index": 4.09}, {"variant": "GSLPWQGLSADTLKERYQKIGDTK", "note": "[K9S]", "protein stability index": 4.2}, {"variant": "GSLPWQGLTADTLKERYQKIGDTK", "note": "[K9T]", "protein stability index": 4.35}, {"variant": "GSLPWQGLVADTLKERYQKIGDTK", "note": "[K9V]", "protein stability index": 3.77}, {"variant": "GSLPWQGLWADTLKERYQKIGDTK", "note": "[K9W]", "protein stability index": 3.58}, {"variant": "GSLPWQGLYADTLKERYQKIGDTK", "note": "[K9Y]", "protein stability index": 4.13}, {"variant": "GSLPWQGLKCDTLKERYQKIGDTK", "note": "[A10C]", "protein stability index": 3.48}, {"variant": "GSLPWQGLKDDTLKERYQKIGDTK", "note": "[A10D]", "protein stability index": 5.01}, {"variant": "GSLPWQGLKEDTLKERYQKIGDTK", "note": "[A10E]", "protein stability index": 4.06}, {"variant": "GSLPWQGLKFDTLKERYQKIGDTK", "note": "[A10F]", "protein stability index": 3.5}, {"variant": "GSLPWQGLKGDTLKERYQKIGDTK", "note": "[A10G]", "protein stability index": 4.46}, {"variant": "GSLPWQGLKHDTLKERYQKIGDTK", "note": "[A10H]", "protein stability index": 4.11}, {"variant": "GSLPWQGLKIDTLKERYQKIGDTK", "note": "[A10I]", "protein stability index": 3.6}, {"variant": "GSLPWQGLKKDTLKERYQKIGDTK", "note": "[A10K]", "protein stability index": 4.28}, {"variant": "GSLPWQGLKLDTLKERYQKIGDTK", "note": "[A10L]", "protein stability index": 3.32}, {"variant": "GSLPWQGLKMDTLKERYQKIGDTK", "note": "[A10M]", "protein stability index": 3.7}, {"variant": "GSLPWQGLKNDTLKERYQKIGDTK", "note": "[A10N]", "protein stability index": 4.62}, {"variant": "GSLPWQGLKPDTLKERYQKIGDTK", "note": "[A10P]", "protein stability index": 4.39}, {"variant": "GSLPWQGLKQDTLKERYQKIGDTK", "note": "[A10Q]", "protein stability index": 4}, {"variant": "GSLPWQGLKRDTLKERYQKIGDTK", "note": "[A10R]", "protein stability index": 4.06}, {"variant": "GSLPWQGLKSDTLKERYQKIGDTK", "note": "[A10S]", "protein stability index": 4.2}, {"variant": "GSLPWQGLKTDTLKERYQKIGDTK", "note": "[A10T]", "protein stability index": 4.48}, {"variant": "GSLPWQGLKVDTLKERYQKIGDTK", "note": "[A10V]", "protein stability index": 4.19}, {"variant": "GSLPWQGLKWDTLKERYQKIGDTK", "note": "[A10W]", "protein stability index": 3.56}, {"variant": "GSLPWQGLKYDTLKERYQKIGDTK", "note": "[A10Y]", "protein stability index": 3.63}, {"variant": "GSLPWQGLKAATLKERYQKIGDTK", "note": "[D11A]", "protein stability index": 3.64}, {"variant": "GSLPWQGLKACTLKERYQKIGDTK", "note": "[D11C]", "protein stability index": 3.63}, {"variant": "GSLPWQGLKAETLKERYQKIGDTK", "note": "[D11E]", "protein stability index": 4.13}, {"variant": "GSLPWQGLKAFTLKERYQKIGDTK", "note": "[D11F]", "protein stability index": 2.89}, {"variant": "GSLPWQGLKAGTLKERYQKIGDTK", "note": "[D11G]", "protein stability index": 3.8}, {"variant": "GSLPWQGLKAHTLKERYQKIGDTK", "note": "[D11H]", "protein stability index": 3.69}, {"variant": "GSLPWQGLKAITLKERYQKIGDTK", "note": "[D11I]", "protein stability index": 3.73}, {"variant": "GSLPWQGLKAKTLKERYQKIGDTK", "note": "[D11K]", "protein stability index": 3.93}, {"variant": "GSLPWQGLKALTLKERYQKIGDTK", "note": "[D11L]", "protein stability index": 3.76}, {"variant": "GSLPWQGLKAMTLKERYQKIGDTK", "note": "[D11M]", "protein stability index": 3.32}, {"variant": "GSLPWQGLKANTLKERYQKIGDTK", "note": "[D11N]", "protein stability index": 3.37}, {"variant": "GSLPWQGLKAPTLKERYQKIGDTK", "note": "[D11P]", "protein stability index": 4.11}, {"variant": "GSLPWQGLKAQTLKERYQKIGDTK", "note": "[D11Q]", "protein stability index": 3.56}, {"variant": "GSLPWQGLKARTLKERYQKIGDTK", "note": "[D11R]", "protein stability index": 3.57}, {"variant": "GSLPWQGLKASTLKERYQKIGDTK", "note": "[D11S]", "protein stability index": 4.11}, {"variant": "GSLPWQGLKATTLKERYQKIGDTK", "note": "[D11T]", "protein stability index": 3.61}, {"variant": "GSLPWQGLKAVTLKERYQKIGDTK", "note": "[D11V]", "protein stability index": 2.8}, {"variant": "GSLPWQGLKAWTLKERYQKIGDTK", "note": "[D11W]", "protein stability index": 2.9}, {"variant": "GSLPWQGLKAYTLKERYQKIGDTK", "note": "[D11Y]", "protein stability index": 3.44}]}]}
